{
  "source": "paper PMC9907115",
  "test_in_all_cases": "cross-linking",
  "key": {"[1]": {"biological_target": "^3FLAGPrgH (S. Typhimurium) (UniProt P41783)", "sequence (P41783 whole entry)": "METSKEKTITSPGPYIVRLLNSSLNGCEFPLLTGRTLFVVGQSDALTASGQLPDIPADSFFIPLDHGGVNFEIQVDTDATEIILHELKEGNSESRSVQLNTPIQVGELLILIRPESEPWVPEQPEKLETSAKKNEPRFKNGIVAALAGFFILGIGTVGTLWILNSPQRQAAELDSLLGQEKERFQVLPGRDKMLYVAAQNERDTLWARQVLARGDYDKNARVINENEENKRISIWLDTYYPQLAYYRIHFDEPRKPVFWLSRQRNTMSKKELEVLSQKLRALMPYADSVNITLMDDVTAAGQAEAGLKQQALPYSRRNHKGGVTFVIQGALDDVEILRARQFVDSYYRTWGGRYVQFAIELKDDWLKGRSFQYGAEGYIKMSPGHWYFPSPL"}, "[2]": {"biological_target": "^3FLAGSpaO (S. Typhimurium) (UniProt P40699)", "sequence (P40699 whole entry)": "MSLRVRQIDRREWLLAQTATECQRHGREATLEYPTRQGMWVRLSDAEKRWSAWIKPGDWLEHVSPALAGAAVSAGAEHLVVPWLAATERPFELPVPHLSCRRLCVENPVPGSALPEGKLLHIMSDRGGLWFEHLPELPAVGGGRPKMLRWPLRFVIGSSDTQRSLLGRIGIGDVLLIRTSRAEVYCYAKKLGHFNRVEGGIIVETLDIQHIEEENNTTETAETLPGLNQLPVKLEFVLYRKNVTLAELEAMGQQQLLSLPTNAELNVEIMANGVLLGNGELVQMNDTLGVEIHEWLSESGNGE"}, "[3]": {"biological_target": "OrgB^R21^p^Bpa (OrgB^M45 variant) (S. Typhimurium)"}},
  "data": [
    {"substance": "OrgA^S70^p^Bpa/L104^p^Bpa (natural protein)", "values": [
      {"measurement": "stoichiometry N (PrgH per OrgA)", "setting": "[1]", "result": 2}
    ]},
    {"substance": "OrgB^K20^p^Bpa (OrgB^M45 variant) (natural protein)", "values": [
      {"measurement": "stoichiometry N (OrgB per SpaO)", "setting": "[2]", "result": 2}
    ]},
    {"substance": "OrgB^R21^p^Bpa (OrgB^M45 variant) (natural protein)", "values": [
      {"measurement": "stoichiometry N", "setting": "[3]", "result": 2}
    ]}
  ]
}
